Assay results reported in US20220332804A1 (CSL INNOVATION, published 2022).

Tests used:
Assay in all cases: SPR, KD relative to WT C2;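 also: biacore SPR at 37 °C, anti-C2 mAbs captured via immobilised goat anti-human IgG, C2 alanine or serine surface mutants as analytes, 1:1 model fitted, double-referenced sensograms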
human C2 H446A = biological target: T1, human C2 H446A (human, UniProt P06681 21-752)
T1 sequence: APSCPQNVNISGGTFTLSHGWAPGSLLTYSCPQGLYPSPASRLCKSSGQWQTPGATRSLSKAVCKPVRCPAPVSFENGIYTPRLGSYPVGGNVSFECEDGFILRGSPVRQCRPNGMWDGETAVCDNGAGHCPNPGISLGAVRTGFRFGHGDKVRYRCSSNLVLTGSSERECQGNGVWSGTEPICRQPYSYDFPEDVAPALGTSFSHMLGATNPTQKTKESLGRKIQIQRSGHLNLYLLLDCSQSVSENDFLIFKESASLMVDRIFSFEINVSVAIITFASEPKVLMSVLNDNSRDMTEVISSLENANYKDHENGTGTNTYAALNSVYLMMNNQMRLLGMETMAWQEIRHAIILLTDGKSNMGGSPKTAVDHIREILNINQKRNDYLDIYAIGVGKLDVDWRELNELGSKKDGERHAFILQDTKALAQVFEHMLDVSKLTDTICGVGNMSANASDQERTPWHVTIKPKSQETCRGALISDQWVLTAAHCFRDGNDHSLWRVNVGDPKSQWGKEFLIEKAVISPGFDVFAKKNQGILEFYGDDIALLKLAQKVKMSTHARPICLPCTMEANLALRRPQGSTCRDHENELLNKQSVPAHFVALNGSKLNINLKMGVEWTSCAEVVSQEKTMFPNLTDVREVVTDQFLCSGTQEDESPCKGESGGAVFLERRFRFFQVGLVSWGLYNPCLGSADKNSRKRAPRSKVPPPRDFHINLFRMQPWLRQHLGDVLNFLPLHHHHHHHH

human C2 E556A = biological target: T2, human C2 E556A (human, UniProt P06681 21-752)
T2 sequence: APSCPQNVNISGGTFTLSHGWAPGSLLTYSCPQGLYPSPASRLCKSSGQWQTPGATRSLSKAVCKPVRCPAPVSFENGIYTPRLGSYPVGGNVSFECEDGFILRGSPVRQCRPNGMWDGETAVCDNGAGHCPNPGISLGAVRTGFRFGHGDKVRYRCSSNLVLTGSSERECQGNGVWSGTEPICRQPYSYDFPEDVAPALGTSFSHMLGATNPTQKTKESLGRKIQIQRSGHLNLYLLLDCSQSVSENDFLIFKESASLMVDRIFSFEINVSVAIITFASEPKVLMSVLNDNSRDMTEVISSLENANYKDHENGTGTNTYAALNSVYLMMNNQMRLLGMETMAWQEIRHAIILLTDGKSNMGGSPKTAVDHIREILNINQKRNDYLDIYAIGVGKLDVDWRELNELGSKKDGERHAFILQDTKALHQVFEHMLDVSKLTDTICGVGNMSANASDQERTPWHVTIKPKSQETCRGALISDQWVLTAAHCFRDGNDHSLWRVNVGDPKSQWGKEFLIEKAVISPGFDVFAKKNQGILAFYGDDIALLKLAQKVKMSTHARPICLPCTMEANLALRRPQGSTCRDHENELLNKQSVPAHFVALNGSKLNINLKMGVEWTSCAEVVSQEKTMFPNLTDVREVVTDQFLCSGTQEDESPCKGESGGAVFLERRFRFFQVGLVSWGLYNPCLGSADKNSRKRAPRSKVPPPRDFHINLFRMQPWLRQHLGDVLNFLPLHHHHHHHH

human C2 R714A = biological target: T3, human C2 R714A (human, UniProt P06681 21-752)
T3 sequence: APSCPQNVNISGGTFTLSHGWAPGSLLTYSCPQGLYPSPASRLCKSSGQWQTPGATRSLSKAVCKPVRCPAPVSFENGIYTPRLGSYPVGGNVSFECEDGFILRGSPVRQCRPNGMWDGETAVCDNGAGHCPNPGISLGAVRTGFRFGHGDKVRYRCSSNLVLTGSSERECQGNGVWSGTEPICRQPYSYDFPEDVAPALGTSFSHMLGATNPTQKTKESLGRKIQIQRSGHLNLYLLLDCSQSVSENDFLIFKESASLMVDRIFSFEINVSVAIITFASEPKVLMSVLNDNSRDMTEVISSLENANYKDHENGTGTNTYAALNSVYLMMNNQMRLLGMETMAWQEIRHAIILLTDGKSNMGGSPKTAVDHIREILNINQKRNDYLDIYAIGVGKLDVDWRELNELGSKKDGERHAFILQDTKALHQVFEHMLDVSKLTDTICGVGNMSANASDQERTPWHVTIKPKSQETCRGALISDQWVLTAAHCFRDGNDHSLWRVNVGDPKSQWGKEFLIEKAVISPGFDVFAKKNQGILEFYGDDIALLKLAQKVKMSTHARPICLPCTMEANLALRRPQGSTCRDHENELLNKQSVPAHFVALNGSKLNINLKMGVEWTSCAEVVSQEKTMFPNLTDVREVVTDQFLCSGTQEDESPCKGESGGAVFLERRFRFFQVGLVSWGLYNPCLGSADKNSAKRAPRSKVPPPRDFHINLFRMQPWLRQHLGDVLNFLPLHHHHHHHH

human C2 M316A = biological target: T4, human C2 M316A (human, UniProt P06681 21-752)
T4 sequence: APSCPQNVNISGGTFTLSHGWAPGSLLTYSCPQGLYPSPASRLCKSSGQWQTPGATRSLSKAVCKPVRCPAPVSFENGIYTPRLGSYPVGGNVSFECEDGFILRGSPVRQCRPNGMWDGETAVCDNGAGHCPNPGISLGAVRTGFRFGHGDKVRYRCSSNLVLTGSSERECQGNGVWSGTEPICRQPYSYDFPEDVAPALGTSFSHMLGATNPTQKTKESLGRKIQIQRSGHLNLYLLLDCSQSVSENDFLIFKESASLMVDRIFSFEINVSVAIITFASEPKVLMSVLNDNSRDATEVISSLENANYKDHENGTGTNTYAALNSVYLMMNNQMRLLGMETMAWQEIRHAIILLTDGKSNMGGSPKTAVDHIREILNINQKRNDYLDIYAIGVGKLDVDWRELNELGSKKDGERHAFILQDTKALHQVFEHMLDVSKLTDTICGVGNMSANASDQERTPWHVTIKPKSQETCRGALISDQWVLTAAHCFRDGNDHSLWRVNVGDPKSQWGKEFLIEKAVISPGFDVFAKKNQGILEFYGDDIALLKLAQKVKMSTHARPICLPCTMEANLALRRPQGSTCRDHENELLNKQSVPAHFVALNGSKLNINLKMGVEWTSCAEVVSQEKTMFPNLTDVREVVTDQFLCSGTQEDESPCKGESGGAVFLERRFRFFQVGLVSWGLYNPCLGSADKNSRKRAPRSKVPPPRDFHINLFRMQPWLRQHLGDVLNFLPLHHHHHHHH

B1: RF16-226 (antibody, human IgG4 S228P, lambda)
heavy: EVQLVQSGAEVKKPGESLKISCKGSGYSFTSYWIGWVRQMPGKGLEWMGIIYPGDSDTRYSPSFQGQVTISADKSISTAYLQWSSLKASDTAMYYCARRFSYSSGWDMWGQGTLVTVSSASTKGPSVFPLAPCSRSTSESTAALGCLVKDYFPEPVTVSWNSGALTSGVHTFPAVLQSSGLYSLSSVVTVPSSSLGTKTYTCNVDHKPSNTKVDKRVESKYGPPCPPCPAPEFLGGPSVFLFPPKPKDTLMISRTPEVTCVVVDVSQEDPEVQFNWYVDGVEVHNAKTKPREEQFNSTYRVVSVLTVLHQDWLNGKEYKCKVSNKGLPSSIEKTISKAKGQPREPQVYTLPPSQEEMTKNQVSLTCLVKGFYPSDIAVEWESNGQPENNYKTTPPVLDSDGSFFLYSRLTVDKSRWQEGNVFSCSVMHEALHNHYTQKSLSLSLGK
light: SYELTQPPSVSVSPGQTARITCSGDALTSKYVAWYQQKSGLAPLLVIYEDTRRPSGIPAKFSGSSSGSVATLTISGAHGDDEADYYCYSTDASGHQRVFGGGTKLTVLSQPKAAPSVTLFPPSSEELQANKATLVCLISDFYPGAVTVAWKADGSPVKAGVETTKPSKQSNNKYAASSYLSLTPEQWKSHRSYSCQVTHEGSTVEKTVAPTECS
notes: pH-dependent anti-C2 antibody from a phage display library; also called WT
Fold diff (human C2 H446A): 2 fold
Fold diff (human C2 E556A): 1 fold
Fold diff (human C2 R714A): 5 fold
Fold diff (human C2 M316A): 1 fold
